Source: the supplement of paper PMC7125110
± gives the standard error. Fewer inactive variants are shown than the library holds.

B1: glmS ribozyme (parent)
chain: AUAAAAGCGCCAGAACUACAGAAAUGUAGUUGACGAGGAGGAGGUUUAUCGAAUUUUCGGCGGAUGCCUCCAAA

Variants of: B1
Experiment: self-cleavage kobs at 2500 uM GlcN6P; higher = faster cleavage; RNA array
Details: with glucosamine-6-phosphate
How it was run: (§1)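 Tracking of barcoded ribozyme variants used a hybridised Cy3 probe at 37 °C, after in situ transcription by E. coli RNA polymerase on sequenced MiSeq chips. The flowed solution held 40 μM to 10 mM glucosamine-6-phosphate in HEPES/KCl/Mg(OAc)2 buffer, and imaging ran over ~14 h. kobs was taken from exponential decay fits of normalised per-tile medians, and kcat and KM from weighted Michaelis–Menten fits.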

| Variant | self-cleavage kobs at 2500 uM GlcN6P |
| --- | --- |
| AUAAAGGCGCCAGAACUACAGAAAUGUAGUUGACGAGAAAGAGGUUUAUCGAAUUUUCGCCGGAUGCCUCCAAA [A6G G38A G40A G60C] | < 1e-05 s⁻¹ |
| ACAAAAGCGCCAGAACUACAGAAAUGUAGUUGACGAGGAGGAGGUUUAUCGAAUUUUCGGGGGAUGCCUCCAAA [U2C C61G] | < 1e-05 s⁻¹ |
| AUAAAUGCGCCAGGACUACAGAAAUGUAGUUGACGAGGAGGAGGUUUACCGAAUUUUCGGCGGAUGCCUCCAAA [A6U A14G U49C] | < 1e-05 s⁻¹ |
| AUAAAGGCGCCAGAACUACAGAAAUGUACUCGACGAGGAGGAGGUUUAUCGAAUUUUCGGCGGAUGCCUCCAAA [A6G G29C U31C] | < 1e-05 s⁻¹ |
| AUAAAUGCGCCAGAAGUACAGAAAUGUAUUUGACGAGGAGGACGUUGAUCGAACUUUCGGCGGAUGCCUCCAAA [A6U C16G G29U G43C U47G U54C] | < 1e-05 s⁻¹ |
| AUAAAGGCGCGAGAACUACAGAAAUGUAGUUGACGAGGAGGAGGUUAAUCGAAUUUUCGGCGGAUGCCUCCAAA [A6G C11G U47A] | < 1e-05 s⁻¹ |
| AUAAACGCGCCAGAAGUACAGAAAUGUAGUUGACGAGGAGGAGGGUUAUCGAAUUUUCUGCGGAUGCCUCCAAA [A6C C16G U45G G59U] | < 1e-05 s⁻¹ |
| AUAAACGCGCCGGAACUACAGAAAUGUAGUUGACGAGGAGGAGGUUUAUCGAUUUUUCGGCGGAUGCCUCCAAA [A6C A12G A53U] | < 1e-05 s⁻¹ |
| AUAAAGGCGCCAGAACUACAGAAAUGUAGUUGACGAGGAGGAGGUUUAUCCAAUUUUCGGCAGAUGCCUCCAAA [A6G G51C G62A] | < 1e-05 s⁻¹ |
| AUAAAGGCUCCAGAACUACAGAAAUGUAUUUGACGAAGAGGAGGUCUAUCGAAUUCUCGGCGGAUGCCUCCAAA [A6G G9U G29U G37A U46C U56C] | < 1e-05 s⁻¹ |
| AUAAACGCGCCAAAACUACAGAAAUGUAGUUGACGAGGCGGAGGUUUAUCGAAUUUUCGGCGGAUGUCUGCAAA [A6C G13A A39C C67U C70G] | < 1e-05 s⁻¹ |
| AUAAAGGCGGCAGAACUACAGAAAUGUAGAUUACGAGGAGGAGGUUUAUCGAAUUGUCGGCGGAUGCCUCCAAA [A6G C10G U30A G32U U56G] | < 1e-05 s⁻¹ |
| AUAAAGGCGCCAGAACUACAGAAAUGUAGUUGACGAGGAGGAGGUUUAUUGAAUUUUCGGCGGCUGCCUCUAAA [A6G C50U A64C C71U] | < 1e-05 s⁻¹ |
| AUAAACGCGCCAGAACUACAGAAAUGUAUUUGACGAGGAAGAGGUUUAGCGAAUUUUCGGCGGAUGCUUCCAAA [A6C G29U G40A U49G C68U] | < 1e-05 s⁻¹ |
| AUAAACGCGCCAGAACUACAGAAAUGUAGUUGACGAGGAGGAGUUUUAUCGAAGUUCCGGCGGAUGCCUCCAAA [A6C G44U U54G U57C] | < 1e-05 s⁻¹ |
| AUAAAGGCGCCAGAACUACAGAAAUGUAGUUGACGAGGAGGAGGUUUAUCGAAUAUUCGGGGGAUGCCUCCAAA [A6G U55A C61G] | < 1e-05 s⁻¹ |
| CUAAAAGCGCCAGAACUACAGAAAUGUAGUUGACGAGGAGGAGGUUUAUCGAAUUUCCGGCGGAUGCCUCCAAA [A1C U57C] | 9.88e-05 ± 2.4e-05 s⁻¹ |
| AUAAACGCGCGAGAACUACAGAAAUGUAGUUGACGAGGAGGAGGUUUAGCGAAUUUUCGGCGGACGCGUCCAAA [A6C C11G U49G U65C C68G] | < 1e-05 s⁻¹ |

| Variant | self-cleavage kobs at 2500 uM GlcN6P |
| --- | --- |
| AUAAACUCGCCAGAACUACAGAAAUGUAGUUGACGAGGAGGAGGUUUAUCGAACUUUCGGCGGAUGCCUCCAAA [A6C G7U U54C] | < 1e-05 s⁻¹ |
| AUAAACGCGCCAGAACUACAGAAAUGUAGUUGACGAGUAGGGGGUUUAUCGAAUUUCCGGCGGAUGCCUCCAAA [A6C G38U A42G U57C] | < 1e-05 s⁻¹ |
| AUAAAGGCGCCAGAACUACAGAAAUGUAGUUGACGAGGAGGAGGUUUAUCGAAGUUUCGGCGGAUGCCUUCAAA [A6G U54G C70U] | 0.0001 ± 2.2e-05 s⁻¹ |
| AUAAAUGCGCCAGAACUACAGAAAUGUAGUUGACGCGGAGGAGGUUUAUCGAAUUUUCGGCGGAUGGCUCCAAA [A6U A36C C67G] | < 1e-05 s⁻¹ |
| AUAAAUGCGUCCGAACUACAGAAAUGUAGUUGACGAGGAGGAGGUUUAUCGAAUUUUCGACGGAUGUCUCCAAA [A6U C10U A12C G60A C67U] | < 1e-05 s⁻¹ |
| AUAAACGCCCCAGAACUACAGAAAUGUAGUUGACAAGGAGGAGGUUUAUCGGAUUUUCGGCGGAUGCUUCCAAA [A6C G9C G35A A52G C68U] | < 1e-05 s⁻¹ |
| AUAAAUGCGCCUGAACUACAGAAAUGUAGUUGACGAGGAGGAGGUCUAUUGAAUUUUCGGCGGAUGCCUCCAAA [A6U A12U U46C C50U] | < 1e-05 s⁻¹ |
| AUAAAGGCGCCAUAACUACAGAAAUGUAGUUGACGAGGAAGAGGUUUAUCGAAUUUUCGGCGGAUGCCUCUAAA [A6G G13U G40A C71U] | < 1e-05 s⁻¹ |
| AUAAAUGCGCCCGAACUACAGAAAUGUAGUUGAUGAGGAGGAGGUUUGUCGAAUUUUCGGGGGUUGCCUCCAAA [A6U A12C C34U A48G C61G A64U] | < 1e-05 s⁻¹ |
| AUAAACGCGCCAGAACUACAGAAAUGUAGUUGAAGAGGGGGAGGAUUAUCGAAUUUUCGGCGGAUGCCUCCAAA [A6C C34A A39G U45A] | < 1e-05 s⁻¹ |
| AUAAACCCGCCAGAACUACAGAAAUGUAGUUGACGAGGAGGAGGUUUAUCGAAUUUUCGGCGAAUGCCUCCAAA [A6C G7C G63A] | < 1e-05 s⁻¹ |
| AUAAAGGCGCCAGUACUACAGAAAUGUAGUUGACGAGGAGGAGGCUUAUCGAAUUUUCGGCGGAUGCCUCCAAA [A6G A14U U45C] | < 1e-05 s⁻¹ |
| AUAAAGGCGCCAGAACUACAGAAAUGUAGUUGAAGAGGAGGAGGUUUAUUGAAUUUUCGGCGGAUGCCACCAAA [A6G C34A C50U U69A] | < 1e-05 s⁻¹ |
| AUAAACGCGCCAGGACUACAGAAAUGUAGUUGACGAGGAGGAGGUUUAUUGAAUUUUCGGCGGAUGCCUCCAAA [A6C A14G C50U] | < 1e-05 s⁻¹ |
| AUAAAUGCGCCAGCACUACAGAAAUGUAGUUGACAAGGAGGAGGUUUAUCGAAUUUUCGGCGGAUGCCUCCAAA [A6U A14C G35A] | < 1e-05 s⁻¹ |
| AUAAACGCGCCAGAACUACAGAAAUGUAGUCGACGAGGAGGAGGUUUAUCGAAUUUUCCGCUGAUGCCUCCAAA [A6C U31C G59C G62U] | < 1e-05 s⁻¹ |
| AUAAAUGCGCCUGAACUACAGAAAUGUAGUUGACGAGGAGGAGGUUUAUCGAAGUUUCGGCGGAUGCCUCCAAA [A6U A12U U54G] | 0.000203 ± 6e-05 s⁻¹ |
| AUAAAUGCGCCAGAAUUACAGAAAUGUAGUUGACGAGGAGGAGGUUUAUCGAGUUUUCGGCGGAUGCCUCGAAA [A6U C16U A53G C71G] | 5.25e-05 ± 2.3e-05 s⁻¹ |

Variants of: B1
Experiment: self-cleavage kobs at 10000 uM GlcN6P; higher = faster cleavage; RNA array
Details: with glucosamine-6-phosphate
How it was run: as §1

| Variant | self-cleavage kobs at 10000 uM GlcN6P |
| --- | --- |
| AUAAAGGCGCCAGAACUACAGAAAUGUAGUUGACGAGAAAGAGGUUUAUCGAAUUUUCGCCGGAUGCCUCCAAA [A6G G38A G40A G60C] | < 1e-05 s⁻¹ |
